Measurements taken from article PMC9454738, “An FDA-Approved Antifungal, Ketoconazole, and Its Novel Derivative Suppress tGLI1-Mediated Breast Cancer Brain Metastasis by Inhibiting the DNA-Binding Activity of Brain Metastasis-Promoting Transcrip”.

Biological target: N-tGLI1 (N-terminal truncated GLI1) (UniProt P08151-2 1-390)
Experiment: EMSA; no drug; 5X binding buffer as printed: 50 mM Tris pH 7.5, 50 mM NaCl, 200 mM KCl, 5 mM MgCl2, 10 mM EDTA, 5 mM DTT, 250 ug/mL BSA, 25% glycerol; 50 ng/uL poly dI-dC; ~600 ng protein, 5 pmol probe in 20 uL; 20 min on ice (drug tests: 30 min preincubation on ice for GLI1 or at RT for N-tGLI1, then 30 min with probe); 6% TBE gel
Settings: protein: recombinant; tags: MBP tag cleaved with HRV 3C protease; label: 5' 6-FAM on both strands; blunt

Chain of N-tGLI1 (N-terminal truncated GLI1) (P08151 other isoform, or with tags, fused parts or gaps): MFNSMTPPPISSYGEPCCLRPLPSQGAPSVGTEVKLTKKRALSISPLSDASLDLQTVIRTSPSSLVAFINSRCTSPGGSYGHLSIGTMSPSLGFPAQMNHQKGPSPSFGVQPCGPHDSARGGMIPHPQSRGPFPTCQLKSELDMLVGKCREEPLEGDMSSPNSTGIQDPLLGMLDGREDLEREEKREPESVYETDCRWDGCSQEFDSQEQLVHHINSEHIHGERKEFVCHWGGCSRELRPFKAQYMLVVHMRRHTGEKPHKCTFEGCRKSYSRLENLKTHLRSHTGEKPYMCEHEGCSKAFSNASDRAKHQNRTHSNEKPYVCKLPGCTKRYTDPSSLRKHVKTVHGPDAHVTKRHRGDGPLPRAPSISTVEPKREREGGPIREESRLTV

B1: GLI1/tGLI1 consensus probe (dsDNA)
DNA 1: CGAAGAGACCACCCAGGTAGCT
DNA 2: AGCTACCTGGGTGGTCTCTTCG
B1: binds.
